Values of other authors as cited in article PMC6263114.

Molecular target: transferrin receptor (TfR) (Homo sapiens) (UniProt P02786)
Sequence (P02786 89-760): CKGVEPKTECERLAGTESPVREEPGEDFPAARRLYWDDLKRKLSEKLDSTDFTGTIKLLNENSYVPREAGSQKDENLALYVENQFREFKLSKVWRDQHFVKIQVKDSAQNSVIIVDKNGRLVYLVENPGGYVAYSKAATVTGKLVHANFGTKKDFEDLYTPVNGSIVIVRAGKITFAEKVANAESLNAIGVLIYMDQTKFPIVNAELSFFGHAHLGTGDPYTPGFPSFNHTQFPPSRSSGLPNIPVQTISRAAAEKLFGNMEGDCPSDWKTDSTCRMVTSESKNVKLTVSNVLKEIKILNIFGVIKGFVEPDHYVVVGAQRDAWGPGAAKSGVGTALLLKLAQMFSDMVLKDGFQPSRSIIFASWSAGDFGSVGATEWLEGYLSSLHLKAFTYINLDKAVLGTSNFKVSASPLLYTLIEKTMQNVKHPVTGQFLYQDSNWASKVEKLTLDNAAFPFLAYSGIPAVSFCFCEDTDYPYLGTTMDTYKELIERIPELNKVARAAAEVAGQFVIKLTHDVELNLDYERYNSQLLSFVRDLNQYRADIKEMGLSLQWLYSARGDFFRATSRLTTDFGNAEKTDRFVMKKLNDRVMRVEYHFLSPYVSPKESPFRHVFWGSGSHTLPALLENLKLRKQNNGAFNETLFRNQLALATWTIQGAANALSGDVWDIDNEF

## T7 peptide
  Kd: 10 nM
